From patent publication US12214008B2, “Protein interfaces” (SyntheX, Inc., priority 2016, dated 2025)

Legend:
Assay type in all cases: binding
S.pombe Rad51 = target: T1, S.pombe Rad51 (Schizosaccharomyces pombe, UniProt P36601); assay: Y2H assay RAD51/SEQ ID NO.: 5 pair; set-up: key: cells having the interaction would survive (+); cells not having the interaction would die (−) on selective media (−ADE, −HIS)
T1 construct: expressed in transfected cells
T1 sequence (P36601 whole entry, looked up): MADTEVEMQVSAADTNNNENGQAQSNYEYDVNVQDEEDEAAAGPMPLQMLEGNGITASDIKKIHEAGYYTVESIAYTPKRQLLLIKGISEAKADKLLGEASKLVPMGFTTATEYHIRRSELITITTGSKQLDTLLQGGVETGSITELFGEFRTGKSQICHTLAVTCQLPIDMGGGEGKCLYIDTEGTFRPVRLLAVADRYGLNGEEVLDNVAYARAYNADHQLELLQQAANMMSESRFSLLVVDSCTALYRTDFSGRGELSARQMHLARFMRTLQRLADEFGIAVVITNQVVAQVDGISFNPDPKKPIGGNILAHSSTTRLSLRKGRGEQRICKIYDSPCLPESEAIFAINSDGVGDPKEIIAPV
Procedure: (§1) RAD51-binding peptides were tested for ability to bind RAD51 of several different species using a “conventional” Y2H assay, where interaction between the two-hybrid pair drove expression of ADE2 and HIS genes. In this Y2H assay the two-hybrid pair was RAD51 and the compound 5 peptide sequence (SEQ ID NO.: 5), so that cells having the interaction would survive (+) and cells not having the interaction would die (−) on selective media (−ADE, −HIS).

S.cerevisiae Rad51 = target: T2, S.cerevisiae Rad51 (Saccharomyces cerevisiae, UniProt P25454); assay: Y2H assay RAD51/SEQ ID NO.: 5 pair; set-up: key: cells having the interaction would survive (+); cells not having the interaction would die (−) on selective media (−ADE, −HIS)
T2 construct: expressed in transfected cells
Procedure: as §1

K.pastoris Rad51 = assay: Y2H assay RAD51/SEQ ID NO.: 5 pair; set-up: key: cells having the interaction would survive (+); cells not having the interaction would die (−) on selective media (−ADE, −HIS)
Procedure: as §1

K.lactis Rad51 = assay: Y2H assay RAD51/SEQ ID NO.: 5 pair; set-up: key: cells having the interaction would survive (+); cells not having the interaction would die (−) on selective media (−ADE, −HIS)
Procedure: as §1

G.gallus Rad51 = target: T3, G.gallus Rad51 (Gallus gallus, UniProt P37383); assay: Y2H assay RAD51/SEQ ID NO.: 5 pair; set-up: key: cells having the interaction would survive (+); cells not having the interaction would die (−) on selective media (−ADE, −HIS)
T3 construct: expressed in transfected cells
T3 sequence (P37383 1-339): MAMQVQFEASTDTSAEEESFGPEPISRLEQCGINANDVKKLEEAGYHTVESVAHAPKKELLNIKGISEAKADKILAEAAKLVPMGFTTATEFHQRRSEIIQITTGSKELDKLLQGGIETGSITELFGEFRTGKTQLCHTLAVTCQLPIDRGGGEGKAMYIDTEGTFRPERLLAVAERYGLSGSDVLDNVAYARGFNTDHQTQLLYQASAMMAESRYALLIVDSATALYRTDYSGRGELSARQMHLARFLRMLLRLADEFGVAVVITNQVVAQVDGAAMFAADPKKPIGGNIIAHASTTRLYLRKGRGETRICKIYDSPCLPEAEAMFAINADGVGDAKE
Procedure: as §1

Rad51 (F86E; A89E) = target: T4, Rad51 (F86E; A89E) (Homo sapiens, UniProt Q06609, A89E/F86E); assay: Y2H assay, human RAD51 mutants; set-up: key: (+) denotes a successful interaction between the two Y2H baits; (−) denotes a lack of interaction
T4 construct: expressed in transfected cells
T4 sequence (Q06609 1-339 F86E/A89E): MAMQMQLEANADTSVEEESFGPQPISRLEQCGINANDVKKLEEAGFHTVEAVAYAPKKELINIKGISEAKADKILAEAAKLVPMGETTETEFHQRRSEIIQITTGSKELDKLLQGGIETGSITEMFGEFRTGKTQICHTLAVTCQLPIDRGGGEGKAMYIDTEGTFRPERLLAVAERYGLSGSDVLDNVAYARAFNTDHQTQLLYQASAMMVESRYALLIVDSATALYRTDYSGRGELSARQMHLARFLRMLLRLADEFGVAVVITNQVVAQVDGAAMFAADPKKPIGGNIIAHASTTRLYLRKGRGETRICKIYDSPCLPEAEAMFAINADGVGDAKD
Procedure: The ability of peptides to bind human RAD51 with various mutations was then tested by Y2H assay. […] While mutations affecting BRCA2 binding had no effect on peptide binding, mutations that affected RAD51-AP1 binding did disrupt peptide binding. As these mutations were at residues 202, 205, and 206, they were consistent with the previous fusion data showing binding somewhere in the 190-218 region, and indicated the peptide SEQ ID NO.: 5 contacts at least residues 202, 205, and 206 of RAD51.

[1] = target: T5, S.cerevisiae Rad51 (1-278) + H.sapiens Rad51 (218-339) (UniProt P25454+Q06609); assay: Y2H assay, RAD51 hybrid constructs; set-up: key: cells having the interaction would survive (+); cells not having the interaction would die (−) on selective media (−ADE, −HIS)
T5 construct: S.cerevisiae Rad51 (1-278) +; H.sapiens Rad51 (218-339); expressed in transfected cells
T5 sequence (P25454 1-278): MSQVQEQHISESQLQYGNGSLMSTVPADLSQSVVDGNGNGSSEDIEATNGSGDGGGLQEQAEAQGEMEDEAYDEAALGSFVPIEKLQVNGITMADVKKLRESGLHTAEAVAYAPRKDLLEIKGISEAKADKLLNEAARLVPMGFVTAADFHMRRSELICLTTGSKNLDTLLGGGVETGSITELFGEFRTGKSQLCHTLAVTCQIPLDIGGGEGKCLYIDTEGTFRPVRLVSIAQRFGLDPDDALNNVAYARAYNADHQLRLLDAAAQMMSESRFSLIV
T5 sequence (Q06609 218-339): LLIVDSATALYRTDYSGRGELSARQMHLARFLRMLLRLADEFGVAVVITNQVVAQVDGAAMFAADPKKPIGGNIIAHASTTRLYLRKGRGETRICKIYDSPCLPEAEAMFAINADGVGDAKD
Procedure: as §1
(§2) Based on sequence comparisons of S. cerevisiae and H. sapiens RAD51, multiple cerevisiae-sapiens hybrid constructs of RAD51 were constructed and tested for their ability to bind RAD51-binding peptide in the same RAD51/SEQ ID NO.: 5 hybrid system described above.

[2] = target: T6, S.cerevisiae Rad51 (1-250) + H.sapiens Rad51 (190-339) (UniProt P25454+Q06609); assay: Y2H assay, RAD51 hybrid constructs; set-up: key: cells having the interaction would survive (+); cells not having the interaction would die (−) on selective media (−ADE, −HIS)
T6 construct: S.cerevisiae Rad51 (1-250) +; H.sapiens Rad51 (190-339); expressed in transfected cells
Procedure: as §1, §2

[3] = target: T7, S.cerevisiae Rad51 (1-226) + H.sapiens Rad51 (168-339) (UniProt P25454+Q06609); assay: Y2H assay, RAD51 hybrid constructs; set-up: key: cells having the interaction would survive (+); cells not having the interaction would die (−) on selective media (−ADE, −HIS)
T7 construct: S.cerevisiae Rad51 (1-226) +; H.sapiens Rad51 (168-339); expressed in transfected cells
Procedure: as §1, §2

T2 sequence (P25454 whole entry): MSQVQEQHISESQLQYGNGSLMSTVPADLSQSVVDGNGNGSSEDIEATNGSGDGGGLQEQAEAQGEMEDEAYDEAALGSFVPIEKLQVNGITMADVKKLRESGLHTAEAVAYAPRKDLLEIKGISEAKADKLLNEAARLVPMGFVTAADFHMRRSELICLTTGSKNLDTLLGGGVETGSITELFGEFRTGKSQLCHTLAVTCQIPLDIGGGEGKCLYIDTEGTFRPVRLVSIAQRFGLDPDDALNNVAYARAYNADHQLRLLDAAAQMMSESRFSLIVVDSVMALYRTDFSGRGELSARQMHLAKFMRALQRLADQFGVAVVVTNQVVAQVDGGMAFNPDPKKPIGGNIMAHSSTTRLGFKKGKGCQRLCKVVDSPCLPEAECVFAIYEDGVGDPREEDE

Sequence: KRRRRRRRKRLGVRLRVSRML [SEQ ID NO.: 5]
- Compound 5 Sequence Binding (S.pombe Rad51): +
- Compound 5 Sequence Binding (S.cerevisiae Rad51): −
- Compound 5 Sequence Binding (K.pastoris Rad51): +
- Compound 5 Sequence Binding (K.lactis Rad51): −
- Compound 5 Sequence Binding (G.gallus Rad51): +
- Y2H interaction with SEQ ID NO.: 5 (Rad51 (F86E; A89E)): +
- SEQ ID NO.: 5 Binding [1]: −
- SEQ ID NO.: 5 Binding [2]: +
- SEQ ID NO.: 5 Binding [3]: +
